Data on six molecules can be found in US11124785B2, “Rothia subtilisins, S8A family proteases, as therapeutic enzymes for application in gluten intolerance disorders” (TRUSTEES OF BOSTON UNIVERSITY, priority 2016, dated 2021).

Test [1] deals with R. mucilaginosa enzyme preparation (Rmep). Kind of test: Inhibitor profile of Rmep (Suc-AAPF-pNA hydrolysis). Format: biochemical, Rothia mucilaginosa. Conditions: for inhibition of Rmep activity: AEBSF 10 mM, aprotinin 0.08 mM, E-64 0.1 mM, EDTA 1.5 mM, PMSF 1 mM, Rmep 5.7 μg/ml, Suc-AAPF-pNA. Here is the method:
Inhibitors AEBSF, Aprotinin, E-64, EDTA, PMSF and Eglin C were tested at final concentrations of 10 mM, 0.08 mM, 0.1 mM, 1.5 mM, 1 mM, and 0.06 μM, respectively. Rmep was added at a final concentration of 5.7 μg/ml. The percent inhibition was determined from the ratio of the initial velocities of hydrolysis of Suc-AAPF-pNA (SEQ ID NO: 4) in the absence and presence of inhibitor.
(§1) Hydrolysis of paranitroanilide-derivatized substrates—Paranitroanilide (pNA)-derivatized tripeptide substrates were chemically synthesized at >90% purity (21st Century Biochemicals, Marlborough, Mass.). The substrates obtained were Z-YPQ-pNA, Z-QQP-pNA, Z-LPY-pNA, Z-PFP-pNA, Z-PPF-pNA, where Z=benzyloxycarbonyl, Y=tyrosine, P=proline, Q=glutamine, L=leucine, and F=phenylalanine Suc-AAPF-pNA (SEQ ID NO: 4) was obtained from Sigma, where Suc=N-succinyl and A=alanine. The peptides were dissolved in 75-100% DMSO at 10 mM, and were used at a final concentration of 200 μM in 50 mM TrisHCl pH 8.0. Purified Rothia enzyme or subtilisin A from Bacillus licheniformis (Sigma) were tested at final concentrations of 1 μg/ml. Some experiments were conducted in the presence of inhibitors 4-(2-Aminoethyl) benzenesulfonyl fluoride (AEBSF), Aprotinin, E-64, EDTA, phenylmethanesulfonyl fluoride (PMSF) and Eglin C, which were tested at final concentrations of 10 mM, 0.08 mM, 0.1 mM, 1.5 mM, 1 mM, and 0.06-1.2 μM, respectively. Enzymes were preincubated with the inhibitors for 20 min before adding Suc-AAPF-pNA (SEQ ID NO: 4). Substrate hydrolysis was monitored for 10 h at 405 nm using a Genios microtiter plate reader (Tecan, Männedorf, Switzerland) in the kinetic mode at 37° C.

Test [2] concerns mixed gliadins. Kind of test: Degradation of mixed gliadins (SDS-PAGE). Particulars: gliadins 250 μg/ml; NattoK 57 μg/ml 0-120 min and dilution series 3.5-0.06 μg/ml 30 min. It counts as biochemical, wheat. Here is the method:
FIG. 5A is a representative SDS-PAGE gel of non-digested gliadins (control) and Rmep-treated gliadins. Gliadins (250 μg/ml) in 50 mM Tris/HCl pH 8.0 were incubated with Rmep at 57 μg/ml. After 0, 15 min, 30 min and 2 h incubation 100 μl aliquots were removed, boiled and analyzed by SDS-PAGE and stained with COOMASSIE Brilliant Blue. The bold arrow (left) points to the position of the major band in the gliadin preparation; the thin arrow (right) to the 125 kDa band in the Rmep preparation, and the dotted arrows (right) to the gliadin degradation fragments.
FIG. 6A is a representative SDS-PAGE gel of non-digested gliadins (control) and subtilisin A-treated gliadins. Gliadins (250 μg/ml) in 50 mM Tris/HCl pH 8.0 were incubated with subtilisin A at 57 μg/ml. Experiments were conducted as described in the legend of FIG. 5 with subtilisin A instead of Rmep.
FIG. 8A is a representative SDS-PAGE gel of non-digested gliadins (control) and NattoK-treated gliadins. Mixed gliadins (G, 250 μg/ml) were incubated with NattoK (57 μg/ml) for 0, 15, 30 and 120 min. Left four lanes: controls without enzyme or gliadins, respectively, each at t=0 and 120 min. Arrow points to the major components in the gliadin mixture represented by α and γ-gliadins containing most of the immunogenic epitopes.
(§2) Degradation of mixed gliadins and the 33-mer peptide—Mixed gliadins were obtained from Sigma. A synthetic highly immunogenic α-gliadin derived 33-mer peptide (26) was synthesized at a purity of >90% (21st Century Biochemicals). Mixed gliadins or the 33-mer peptide (each at final concentration 250 μg/ml) were incubated with Rmep or subtilisin A (each at 57 μg/ml) in 50 mM TrisHCl, pH 8.0. After t=0, 15 min, 30 min, and 2 h, 100 μl sample aliquots were removed and boiled. Gliadin degradation was assessed by 4-12% SDS-PAGE followed by Coomassie staining, and 33-mer degradation was determined by RP-HPLC.

In test [3] the test system is gliadins. Put plainly: Gliadin degradation control of Example 3 (SDS-PAGE). Format: biochemical. Conditions: gliadins 500 μg/ml, enzyme 25 μg/ml, pH 8.0. Here is the method:
(§3) FIGS. 15A-15F show effective ATI degradation by subtilisins from B. subtilis (nattokinase). […] ATI (500 μg/ml) incubated with Rmep from R. mucilaginosa (FIG. 15A) or nattokinase from B. subtilis (FIG. 15C) at 50, 25, or 10 μg/ml; FIGS. 15B and 15D, Gliadins (500 μg/ml) incubated with Rmep (FIG. 15B) or nattokinase (FIG. 15D) at 25 μg/ml. FIGS. 15E and 15F, ATIs incubated with control heat inactivated enzymes, Rmep (FIG. 15E) or nattokinase (FIG. 15F).
(§4) ATIs were isolated from wheat cultivars as described^3. They were incubated at a final concentration of 500 μg/ml with 10, 25 or 50 μg/ml Rmep (from R. mucilaginosa), or nattokinase (from B. subtilis). The controls incubations were carried out with heat-inactivated Rmep and nattokinase. Experiments were conducted in 50 mM Tris-HCl, pH 8.0. After 0, 15 min, 30 min, 1 h, and 4 h incubation, 20 μl aliquots were removed, mixed with SDS-sample buffer, heated at 85° C. for 5 min and analyzed by 4-12% SDS PAGE. Proteins were visualized with Coomassie Blue staining.

For test [4], the system named is wheat ATI proteins. Put plainly: Degradation of amylase-trypsin inhibitors (SDS-PAGE). It counts as biochemical. Conditions: ATIs 500 μg/ml. Here is the method:
as §3, §4

Test [5] relates to α-gliadin derived 33-mer peptide. Kind of test: Degradation of the 33-mer peptide (RP-HPLC). It counts as biochemical. Particulars: 33-mer 250 μg/ml, NattoK 57 μg/ml, 0-120 min; large fragment remained. Here is the method:
FIG. 8D is a representative chromatogram of the RP-HPLC analysis of the degradation of the gliadin-derived 33-mer (250 μg/ml) incubated for 0, 15, 30 and 120 min with NattoK 57 μg/ml).
as §2
Reversed-phase high performance liquid chromatography (RP-HPLC)—Separation of the 33-mer peptide and its fragments was achieved by RP-HPLC, using buffer A (0.1% trifluoroacetic acid) and buffer B (0.1% trifluoroacetic acid in 80% acetonitrile) at a gradient of 0-55% buffer B over 75 min time interval. The equipment used was an HPLC Model 715 (Gilson, Middleton, Wis.) and a C-18 column (TSK-GEL […], ODS-120T, TOSOHaas, Montgomeryville, Pa.) (22, 25).

Test [6] deals with Suc-AAPF-pNA. Kind of test: Hydrolysis of paranitroanilide-derivatized substrate Suc-AAPF-pNA. It counts as biochemical. Conditions: substrate 200 μM; enzyme 1 μg/ml (NattoK: dilution series); 50 mM TrisHCl pH 8.0, 37° C. Here is the method: FIG. 4A and FIG. 4B are representative graphs of the hydrolysis of the substrates: Suc-AAPF-pNA (SEQ ID NO: 4), Z-YPQ-pNA, and Z-LPY-pNA, each at 200 μM, by Rmep and subtilisin A, respectively, each at 1 μg/ml.
FIG. 8C show a representative graph of the hydrolysis of the substrate, Suc-AAPF-pNA (SEQ ID NO: 4), with a dilution series of NattoK. Suc-AAPF-pNA (SEQ ID NO: 4) was incubated […]. Hydrolysis was measured at 405 nm.
as §1

Test [7] deals with R5 epitopes (QQPFP and related pentapeptides) in mixed gliadins. Kind of test: R5 ELISA, gluten epitope elimination in gliadin digests. Particulars: gliadins 250 μg/ml, NattoK 57 μg/ml, 0-120 min. Format: biochemical. Here is the method: FIG. 8E and FIG. 8F show the assessment of the survival of epitopes in the gliadin-NattoK degradation mixture employing the R5 ELISA (FIG. 8E) or G12 ELISA (FIG. 8F) assays. Epitope abolishment in Mixed gliadins (250 μg/ml) were incubated with NattoK (57 μg/ml) for 0, 15, 30 and 120 min and then assayed by the R5 ELISA or G12 ELISA.
R5 and G12 ELISA assays—Gluten epitope elimination in the gliadin-Rmep and gliadin-subtilisin A digests was assessed using two sandwich ELISA assays employing the R5 monoclonal antibody (RIDASCREEN Gliadin, R-Biopharm, Darmstadt, Germany) or the G12 monoclonal antibody (AgraQuant® ELISA Gluten G12, Romer labs, Union, Mo.). To prevent high background values, the R5 plate wells were blocked with 1% skim milk in PBS prior to incubation with the samples. The assays were performed according to the manufacturers' instructions and as described (21, 24).
To further investigate this, the time courses of degradation of mixed gliadins and the highly immunogenic 33-mer α-gliadin peptide were determined. Furthermore, epitope elimination was monitored by two ELISA assays employing the R5 antibody recognizing QQPFP (SEQ ID NO: 40) and related pentapeptides (27, 28) and the G12 antibody recognizing QPQLPY (SEQ ID NO: 22) contained in the 33-mer peptide (29, 30). Data obtained with Rmep are shown in FIG. 5, and with subtilisin A in FIG. 6.
(In general: ELISA stands for enzyme-linked immunosorbent assay.)

In the case of `NCCc1ccc(S(=O)(=O)F)cc1` [AEBSF, 4-(2-Aminoethyl) benzenesulfonyl fluoride], the “inhibition of Rmep activity” value in test [1] is on record as “inhibited effectively”.
Still for that read-out and setting: in the case of `CC(C)C[C@H](NC(=O)[C@H]1O[C@@H]1C(=O)O)C(=O)NCCCCN=C(N)N` [E64] it was “not”; in that of `O=C(O)CN(CCN(CC(=O)O)CC(=O)O)CC(=O)O` [EDTA, ethylenediaminetetraacetic acid], “not”.
For `O=S(=O)(F)Cc1ccccc1` [PMSF, phenylmethanesulfonyl fluoride], in test [1] (1 mM PMSF, stated as embodiment), the “inhibition of the Rothia subtilisin by PMSF” value is 100%. Further, the “inhibition of Rmep activity” value in test [1] is “inhibited effectively”.
Regarding aprotinin, in test [1], the “inhibition of Rmep activity” value is listed as “partial inhibition”.

B1: NattoK: nattokinase, a 27.7 kDa subtilisin enzyme from B. subtilis, available in pure form as a dietary supplement (protein, listed as Bacillus subtilis)
chain: MRSKKLWISLLFALTLIFTMAFSNMSAQAAGKSSTEKKYIVGFKQTMSAMSSAKKKDVISEKGGKVQKQFKYVNAAAATLDEKAVKELKKDPSVAYVEEDHIAHEYAQSVPYGISQIKAPALHSQGYTGSNVKVAVIDSGIDSSHPDLNVRGGASFVPSETNPYQDGSSHGTHVAGTIAALNNSIGVLGVAPSASLYAVKVLDSTGSGQYSWIINGIEWAISNNMDVINMSLGGPTGSTALKTVVDKAVSSGIVVAAAAGNEGSSGSTSTVGYPAKYPSTIAVGAVNSSNQRASFSSVGSELDVMAPGVSIQSTLPGGTYGAYNGTSMATPHVAGAAALILSKHPTWTNAQVRDRLESTATYLGNSFYYGKGLINVQAAAQ
For B1, in test [2], the “degradation of mixed gliadins” value is recorded as “degraded gliadins effectively”. In addition, in test [3], the degradation of gliadins result was “rapidly degraded”. In addition, the “ATIs degraded after 4 h incubation with 10 μg/ml enzyme” value in test [4] (10 μg/ml enzyme, 4 h) is listed as “Approximately 50%”. Besides, in test [4] (50 μg/ml enzyme, 1 h), the “ATIs degraded after 1 h incubation with 50 μg/ml enzyme” value was “Approximately 50%”. Also, in test [4] (enzyme 10, 25 or 50 μg/ml, pH 8.0, up to 4 h), the “degradation of wheat ATI proteins” value is recorded as “susceptible to proteolysis”. The “degradation of the 33-mer peptide” value in test [5] is “degraded the 33-mer peptide”. Besides, the “hydrolysis of Suc-AAPF-pNA” value in test [6] is “hydrolyzed”. Moreover, the “abolishment of R5 epitopes” value in test [7] is “abolished”.
